Assay results as given in PMC11607802.

Biological target: Butelase AY (Butelase 1 V237A/T238Y), zymogenic form before activation (Clitoria ternatea)
Experiment: SEC

Butelase AY (Butelase 1 V237A/T238Y), zymogenic form before activation (enzyme)
stoichiometry N: 2
